US20200199241A1 (Chugai, published 2020)

The binders below were run against T1, soluble human FcRn complexed with β2-microglobulin (human, UniProt P61769 21-119, limits assumed) (assay: Biacore SPR, pH 7.0;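 further: test antibodies captured on a Protein L chip with human FcRn flowed over as analyte, KD obtained as the ratio of dissociation to association rate constants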).
T1 construct: also called hFcRn

| Kd | Binder |
| --- | --- |
| 12 nM | IgG1-F1009 (antibody, copies: 2 + 2) heavy: QVQLQESGPGLVKPSETLSLTCAVSGHSISHDHAWSWVRQPPGEGLEWIGFISYSGITNYNPSLQGRVTISRDNSKNTLYLQMNSLRAEDTAVYYCARSLARTTAMDYWGEGTLVTVSSASTKGPSVFPLAPSSKSTSGGTAALGCLVKDYFPEPVTVSWNSGALTSGVHTFPAVLQSSGLYSLSSVVTVPSSSLGTQTYICNVNHKPSNTKVDKKVEPKSCDKTHTCPPCPAPELRGGPKVFLFPPKPKDVLYISRTPEVTCVVVDVSHEDPEVKFNWYVDGVEVHNAKTKPREEQYNSTYRVVSVLQPLHADWLNGKEYKCKVSNKALPAPIEKTISKAKGQPREPQVYTLPPSRDELTKNQVSLTCLVKGFYPSDIAVEWESNGQPENNYKTTPPVLDSDGSFFLYSKLTVDKSRWQQGNVFSCSVMHEALHYHVTQKSLSLSP light: not shown |
| 190 nM | IgG1-F1010 (antibody, EU numbering; copies: 2 + 2) heavy: QVQLQESGPGLVKPSETLSLTCAVSGHSISHDHAWSWVRQPPGEGLEWIGFISYSGITNYNPSLQGRVTISRDNSKNTLYLQMNSLRAEDTAVYYCARSLARTTAMDYWGEGTLVTVSSASTKGPSVFPLAPSSKSTSGGTAALGCLVKDYFPEPVTVSWNSGALTSGVHTFPAVLQSSGLYSLSSVVTVPSSSLGTQTYICNVNHKPSNTKVDKKVEPKSCDKTHTCPPCPAPELRGGPKVFLFPPKPKDTLYISRTPEVTCVVVDVSHEDPEVKFNWYVDGVEVHNAKTKPREEQYNSTYRVVSVLAVLHHDWLNGKEYKCKVSNKALPAPIEKTISKAKGQPREPQVYTLPPSRDELTKNQVSLTCLVKGFYPSDIAVEWESNGQPENNYKTTPPVLDSDGSFFLYSKLTVDKSRWQQGNVFSCSVMHEALHYHYTQKSLSLSP light: not shown |
| 40 nM | IgG1-F1024 (antibody, EU numbering; copies: 2 + 2) heavy: QVQLQESGPGLVKPSETLSLTCAVSGHSISHDHAWSWVRQPPGEGLEWIGFISYSGITNYNPSLQGRVTISRDNSKNTLYLQMNSLRAEDTAVYYCARSLARTTAMDYWGEGTLVTVSSASTKGPSVFPLAPSSKSTSGGTAALGCLVKDYFPEPVTVSWNSGALTSGVHTFPAVLQSSGLYSLSSVVTVPSSSLGTQTYICNVNHKPSNTKVDKKVEPKSCDKTHTCPPCPAPELLGGPSVFLFPPKPKDVLYISRTPEVTCVVVDVSHEDPEVKFNWYVDGVEVHNAKTKPREEQYNSTYRVVSVLQVLHADWLNGKEYKCKVSNDAYPAPIEKTISKAKGQPREPQVYTLPPSRDELTKNQVSLTCLVKGFYPSDIAVEWESNGQPENNYKTTPPVLDSDGSFFLYSKLTVDKSRWQQGNVFSCSVMHEALHYHVTQKSLSLSP light: not shown |
| 30 nM | IgG1-F1013 (antibody, EU numbering; copies: 2 + 2) heavy: QVQLQESGPGLVKPSETLSLTCAVSGHSISHDHAWSWVRQPPGEGLEWIGFISYSGITNYNPSLQGRVTISRDNSKNTLYLQMNSLRAEDTAVYYCARSLARTTAMDYWGEGTLVTVSSASTKGPSVFPLAPSSKSTSGGTAALGCLVKDYFPEPVTVSWNSGALTSGVHTFPAVLQSSGLYSLSSVVTVPSSSLGTQTYICNVNHKPSNTKVDKKVEPKSCDKTHTCPPCPAPELLGGPSVFLFPPKPKDVLYISRTPEVTCVVVDVSHEDPEVKFNWYVDGVEVHNAKTKPREEQYNSTYRVVSVLQPLHADWLNGKEYKCKVSNKALPAPIEKTISKAKGQPREPQVYTLPPSRDELTKNQVSLTCLVKGFYPSDIAVEWESNGQPENNYKTTPPVLDSDGSFFLYSKLTVDKSRWQQGNVFSCSVMHEALHYHYTQKSLSLSP light: not shown |
| 22 nM | IgG1-F1015 (antibody, EU numbering; copies: 2 + 2) heavy: QVQLQESGPGLVKPSETLSLTCAVSGHSISHDHAWSWVRQPPGEGLEWIGFISYSGITNYNPSLQGRVTISRDNSKNTLYLQMNSLRAEDTAVYYCARSLARTTAMDYWGEGTLVTVSSASTKGPSVFPLAPSSKSTSGGTAALGCLVKDYFPEPVTVSWNSGALTSGVHTFPAVLQSSGLYSLSSVVTVPSSSLGTQTYICNVNHKPSNTKVDKKVEPKSCDKTHTCPPCPAPELRGGPKVFLFPPKPKDTLYISRTPEVTCVVVDVSHEDPEVKFNWYVDGVEVHNAKTKPREEQYNSTYRVVSVLQPLHADWLNGKEYKCKVSNKALPAPIEKTISKAKGQPREPQVYTLPPSRDELTKNQVSLTCLVKGFYPSDIAVEWESNGQPENNYKTTPPVLDSDGSFFLYSKLTVDKSRWQQGNVFSCSVMHEALHYHYTQKSLSLSP light: not shown |
| 3.8 nM | IgG1-F1016 (antibody, EU numbering; copies: 2 + 2) heavy: QVQLQESGPGLVKPSETLSLTCAVSGHSISHDHAWSWVRQPPGEGLEWIGFISYSGITNYNPSLQGRVTISRDNSKNTLYLQMNSLRAEDTAVYYCARSLARTTAMDYWGEGTLVTVSSASTKGPSVFPLAPSSKSTSGGTAALGCLVKDYFPEPVTVSWNSGALTSGVHTFPAVLQSSGLYSLSSVVTVPSSSLGTQTYICNVNHKPSNTKVDKKVEPKSCDKTHTCPPCPAPELLGGPSVFLFPPKPKDVLYISRTPEVTCVVVDVSHEDPEVKFNWYVDGVEVHEAKTKPREEQYNSTYRVVSVLQPLHADWLNGKEYKCKVSNKALPAPIEKTISKAKGQPREPQVYTLPPSRDELTKNQVSLTCLVKGFYPSDIAVEWESNGQPENNYKTTPPVLDSDGSFFLYSKLTVDKSRWQQGNVFSCSVMHEALHYHVTQKSLSLSP light: not shown |
| 330 nM | IgG1-F1021 (antibody, EU numbering; copies: 2 + 2) heavy: QVQLQESGPGLVKPSETLSLTCAVSGHSISHDHAWSWVRQPPGEGLEWIGFISYSGITNYNPSLQGRVTISRDNSKNTLYLQMNSLRAEDTAVYYCARSLARTTAMDYWGEGTLVTVSSASTKGPSVFPLAPSSKSTSGGTAALGCLVKDYFPEPVTVSWNSGALTSGVHTFPAVLQSSGLYSLSSVVTVPSSSLGTQTYICNVNHKPSNTKVDKKVEPKSCDKTHTCPPCPAPELLGGDSVFLFPPKPKDVLYISRTPEVTCVVVDVSHEDPEVKFNWYVDGVEVHNAKTKPREEQYNSTYRVVSVLTVLHQDWLNGKEYKCKVSAKALPAPIEKTISKAKGQPREPQVYTLPPSRDELTKNQVSLTCLVKGFYPSDIAVEWESNGQPENNYKTTPPVLDSDGSFFLYSKLTVDKSRWQQGNVFSCSVMHEALHYHYTQKSLSLSP light: not shown |
| 44 nM | IgG1-F1023 (antibody, EU numbering; copies: 2 + 2) heavy: QVQLQESGPGLVKPSETLSLTCAVSGHSISHDHAWSWVRQPPGEGLEWIGFISYSGITNYNPSLQGRVTISRDNSKNTLYLQMNSLRAEDTAVYYCARSLARTTAMDYWGEGTLVTVSSASTKGPSVFPLAPSSKSTSGGTAALGCLVKDYFPEPVTVSWNSGALTSGVHTFPAVLQSSGLYSLSSVVTVPSSSLGTQTYICNVNHKPSNTKVDKKVEPKSCDKTHTCPPCPAPELLGGPDVFLFPPKPKDVLYISRTPEVTCVVVDVSHEDPEVKFNWYVDGVEVHNAKTKPREEQYNSTYRVVSVLQVLHADWLNGKEYKCKVSNKALPAPIEKTISKAKGQPREPQVYTLPPSRDELTKNQVSLTCLVKGFYPSDIAVEWESNGQPENNYKTTPPVLDSDGSFFLYSKLTVDKSRWQQGNVFSCSVMHEALHYHVTQKSLSLSP light: not shown |
| 45 nM | IgG1-F1011 (antibody, EU numbering; copies: 2 + 2) heavy: QVQLQESGPGLVKPSETLSLTCAVSGHSISHDHAWSWVRQPPGEGLEWIGFISYSGITNYNPSLQGRVTISRDNSKNTLYLQMNSLRAEDTAVYYCARSLARTTAMDYWGEGTLVTVSSASTKGPSVFPLAPSSKSTSGGTAALGCLVKDYFPEPVTVSWNSGALTSGVHTFPAVLQSSGLYSLSSVVTVPSSSLGTQTYICNVNHKPSNTKVDKKVEPKSCDKTHTCPPCPAPELLGGPSVFLFPPKPKDVLYISRTPEVTCVVVDVSHEDPEVKFNWYVDGVEVHNAKTKPREEQYNSTYRVVSVLTPLHQDWLNGKEYKCKVSNKALPAPIEKTISKAKGQPREPQVYTLPPSRDELTKNQVSLTCLVKGFYPSDIAVEWESNGQPENNYKTTPPVLDSDGSFFLYSKLTVDKSRWQQGNVFSCSVMHEALHYHYTQKSLSLSP light: not shown |
| 85 nM | IgG1-F1020 (antibody, EU numbering; copies: 2 + 2) heavy: QVQLQESGPGLVKPSETLSLTCAVSGHSISHDHAWSWVRQPPGEGLEWIGFISYSGITNYNPSLQGRVTISRDNSKNTLYLQMNSLRAEDTAVYYCARSLARTTAMDYWGEGTLVTVSSASTKGPSVFPLAPSSKSTSGGTAALGCLVKDYFPEPVTVSWNSGALTSGVHTFPAVLQSSGLYSLSSVVTVPSSSLGTQTYICNVNHKPSNTKVDKKVEPKSCDKTHTCPPCPAPELLGGDSVFLFPPKPKDVLYISRTPEVTCVVVDVSHEDPEVKFNWYVDGVEVHNAKTKPREEQYNSTYRVVSVLQVLHADWLNGKEYKCKVSGKALPAPIEKTISKAKGQPREPQVYTLPPSRDELTKNQVSLTCLVKGFYPSDIAVEWESNGQPENNYKTTPPVLDSDGSFFLYSKLTVDKSRWQQGNVFSCSVMHEALHYHYTQKSLSLSP light: not shown |
| 47 nM | IgG1-F1012 (antibody, EU numbering; copies: 2 + 2) heavy: QVQLQESGPGLVKPSETLSLTCAVSGHSISHDHAWSWVRQPPGEGLEWIGFISYSGITNYNPSLQGRVTISRDNSKNTLYLQMNSLRAEDTAVYYCARSLARTTAMDYWGEGTLVTVSSASTKGPSVFPLAPSSKSTSGGTAALGCLVKDYFPEPVTVSWNSGALTSGVHTFPAVLQSSGLYSLSSVVTVPSSSLGTQTYICNVNHKPSNTKVDKKVEPKSCDKTHTCPPCPAPELRGGPKVFLFPPKPKDVLYISRTPEVTCVVVDVSHEDPEVKFNWYVDGVEVHNAKTKPREEQYNSTYRVVSVLTPLHQDWLNGKEYKCKVSNKALPAPIEKTISKAKGQPREPQVYTLPPSRDELTKNQVSLTCLVKGFYPSDIAVEWESNGQPENNYKTTPPVLDSDGSFFLYSKLTVDKSRWQQGNVFSCSVMHEALHYHYTQKSLSLSP light: not shown |
| 36 nM | IgG1-F1025 (antibody, EU numbering; copies: 2 + 2) heavy: QVQLQESGPGLVKPSETLSLTCAVSGHSISHDHAWSWVRQPPGEGLEWIGFISYSGITNYNPSLQGRVTISRDNSKNTLYLQMNSLRAEDTAVYYCARSLARTTAMDYWGEGTLVTVSSASTKGPSVFPLAPSSKSTSGGTAALGCLVKDYFPEPVTVSWNSGALTSGVHTFPAVLQSSGLYSLSSVVTVPSSSLGTQTYICNVNHKPSNTKVDKKVEPKSCDKTHTCPPCPAPELLGGPDVFLFPPKPKDVLYISRTPEVTCVVVDVSHEDPEVKFNWYVDGVEVHNAKTKPREEQYNSTYRVVSVLQVLHADWLNGKEYKCKVSNDAYPAPIEKTISKAKGQPREPQVYTLPPSRDELTKNQVSLTCLVKGFYPSDIAVEWESNGQPENNYKTTPPVLDSDGSFFLYSKLTVDKSRWQQGNVFSCSVMHEALHYHVTQKSLSLSP light: not shown |
| 3.2 nM | IgG1-F1018 (antibody, EU numbering; copies: 2 + 2) heavy: QVQLQESGPGLVKPSETLSLTCAVSGHSISHDHAWSWVRQPPGEGLEWIGFISYSGITNYNPSLQGRVTISRDNSKNTLYLQMNSLRAEDTAVYYCARSLARTTAMDYWGEGTLVTVSSASTKGPSVFPLAPSSKSTSGGTAALGCLVKDYFPEPVTVSWNSGALTSGVHTFPAVLQSSGLYSLSSVVTVPSSSLGTQTYICNVNHKPSNTKVDKKVEPKSCDKTHTCPPCPAPELRGGPKVFLFPPKPKDTLYISRTPEVTCVVVDVSHEDPEVKFNWYVDGVEVHEAKTKPREEQYNSTYRVVSVLQPLHADWLNGKEYKCKVSNKALPAPIEKTISKAKGQPREPQVYTLPPSRDELTKNQVSLTCLVKGFYPSDIAVEWESNGQPENNYKTTPPVLDSDGSFFLYSKLTVDKSRWQQGNVFSCSVMHEALHYHVTQKSLSLSP light: not shown |
